Source: PMC9482650, “Quantitative fragmentomics allow affinity mapping of interactomes” (Nature Communications, 2022)

How the values were obtained:
Test in all cases: holdup assay
Design in all cases: key: below the threshold = too weak to quantify, mostly under pKd 3.1 to 4
Conditions in all cases: plain residues with an end cap or a label only (N-terminal biotin on a linker: ado-ado)
GRIP1_2, Q9Y3R0 = molecular target: T1, GRIP1_2, Q9Y3R0
T1 sequence (Q9Y3R0 145-248, limits assumed, looked up): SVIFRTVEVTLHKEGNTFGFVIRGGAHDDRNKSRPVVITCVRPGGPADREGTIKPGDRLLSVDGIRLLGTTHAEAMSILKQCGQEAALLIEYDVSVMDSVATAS

GORASP2, Q9H8Y8 = molecular target: GORASP2, Q9H8Y8
FRMPD4, Q14CM0 = molecular target: FRMPD4, Q14CM0
GRIP1_7, Q9Y3R0 = molecular target: T2, GRIP1_7, Q9Y3R0
T2 sequence (Q9Y3R0 999-1096, limits assumed, looked up): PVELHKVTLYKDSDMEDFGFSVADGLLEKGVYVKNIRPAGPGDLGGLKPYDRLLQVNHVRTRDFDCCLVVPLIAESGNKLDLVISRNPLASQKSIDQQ

GRIP2_5, Q9C0E4 = molecular target: GRIP2_5, Q9C0E4
GRIP1_5, Q9Y3R0 = molecular target: T3, GRIP1_5, Q9Y3R0
T3 sequence (Q9Y3R0 568-668, limits assumed, looked up): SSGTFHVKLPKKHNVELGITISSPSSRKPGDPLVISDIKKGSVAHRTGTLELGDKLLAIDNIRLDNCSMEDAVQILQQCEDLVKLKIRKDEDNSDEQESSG

GRIP2_7, Q9C0E4 = molecular target: GRIP2_7, Q9C0E4
MPP7, Q5T2T1 = molecular target: T4, MPP7, Q5T2T1
T4 sequence (Q5T2T1 134-230, limits assumed, looked up): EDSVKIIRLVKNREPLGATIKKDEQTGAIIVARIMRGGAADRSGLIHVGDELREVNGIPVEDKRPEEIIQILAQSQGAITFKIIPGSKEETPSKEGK

GRIP2_4, Q9C0E4 = molecular target: GRIP2_4, Q9C0E4
PDZRN4_1, Q6ZMN7 = molecular target: PDZRN4_1, Q6ZMN7
LAP2, Q96RT1 = molecular target: LAP2, Q96RT1
DLG5_1, Q8TDM6 = molecular target: DLG5_1, Q8TDM6
GRIP1_3, Q9Y3R0 = molecular target: T5, GRIP1_3, Q9Y3R0
T5 sequence (Q9Y3R0 247-346, limits assumed, looked up): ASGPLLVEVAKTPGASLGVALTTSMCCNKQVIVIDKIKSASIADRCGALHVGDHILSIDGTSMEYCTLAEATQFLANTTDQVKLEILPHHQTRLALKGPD

APBA2_1, Q99767 = molecular target: T6, APBA2_1, Q99767
T6 sequence (Q99767 563-664, limits assumed, looked up): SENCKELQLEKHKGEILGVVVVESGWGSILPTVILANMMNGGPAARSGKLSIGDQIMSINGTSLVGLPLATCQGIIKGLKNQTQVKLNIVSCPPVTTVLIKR

SYNJ2BP, P57105 = molecular target: T7, SYNJ2BP, P57105
T7 sequence (P57105 8-110, limits assumed, looked up): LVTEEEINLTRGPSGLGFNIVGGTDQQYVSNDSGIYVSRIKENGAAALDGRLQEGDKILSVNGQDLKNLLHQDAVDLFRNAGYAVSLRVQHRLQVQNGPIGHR

GRIP2_6, Q9C0E4 = molecular target: GRIP2_6, Q9C0E4
SCRIB_2, Q14160 = molecular target: SCRIB_2, Q14160
HTRA2, O43464 = molecular target: HTRA2, O43464
Inadl_2, Q8NI35 = molecular target: Inadl_2, Q8NI35
SNX27, Q96L92 = molecular target: SNX27, Q96L92
CASK, O14936 = molecular target: CASK, O14936
GRID2IP_1, A4D2P6 = molecular target: GRID2IP_1, A4D2P6
MAGI2_2, Q86UL8 = molecular target: MAGI2_2, Q86UL8
APBA1_1, Q02410 = molecular target: T8, APBA1_1, Q02410
T8 sequence (Q02410 651-752, limits assumed, looked up): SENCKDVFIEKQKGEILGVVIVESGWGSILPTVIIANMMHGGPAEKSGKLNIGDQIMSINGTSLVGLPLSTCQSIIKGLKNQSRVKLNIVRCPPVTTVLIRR

MAGI2_4, Q86UL8 = molecular target: MAGI2_4, Q86UL8
TJP3_3, O95049 = molecular target: T9, TJP3_3, O95049
T9 sequence (O95049 375-456, limits assumed, looked up): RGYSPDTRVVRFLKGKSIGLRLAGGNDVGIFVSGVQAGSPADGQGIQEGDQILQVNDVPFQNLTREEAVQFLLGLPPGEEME

TJP2_1, Q9UDY2 = molecular target: TJP2_1, Q9UDY2
SCRIB_1, Q14160 = molecular target: SCRIB_1, Q14160
Chain of SCRIB_1, Q14160 (Q14160 718-814): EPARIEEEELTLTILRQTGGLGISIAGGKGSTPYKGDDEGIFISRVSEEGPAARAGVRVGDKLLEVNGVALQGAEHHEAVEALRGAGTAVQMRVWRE

Chain of GRIP2_5, Q9C0E4 (Q9C0E4 544-642): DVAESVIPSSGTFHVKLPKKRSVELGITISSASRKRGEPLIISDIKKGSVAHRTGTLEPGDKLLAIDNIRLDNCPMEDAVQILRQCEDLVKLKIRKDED
Chain of TJP2_1, Q9UDY2 (Q9UDY2 24-128): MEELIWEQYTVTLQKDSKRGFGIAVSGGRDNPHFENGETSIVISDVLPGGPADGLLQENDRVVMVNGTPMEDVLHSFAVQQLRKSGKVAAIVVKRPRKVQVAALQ
Chain of SCRIB_2, Q14160 (Q14160 857-960): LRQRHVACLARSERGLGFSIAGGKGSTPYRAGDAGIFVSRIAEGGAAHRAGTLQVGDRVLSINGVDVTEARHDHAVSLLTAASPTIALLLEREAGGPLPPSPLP
Chain of GRID2IP_1, A4D2P6 (A4D2P6 1-87): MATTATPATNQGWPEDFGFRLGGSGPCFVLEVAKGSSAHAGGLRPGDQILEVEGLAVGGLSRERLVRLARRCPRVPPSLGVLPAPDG
Chain of MAGI2_4, Q86UL8 (Q86UL8 772-865): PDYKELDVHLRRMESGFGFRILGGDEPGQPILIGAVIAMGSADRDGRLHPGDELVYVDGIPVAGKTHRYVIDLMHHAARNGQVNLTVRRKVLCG
Chain of GRIP2_4, Q9C0E4 (Q9C0E4 446-548): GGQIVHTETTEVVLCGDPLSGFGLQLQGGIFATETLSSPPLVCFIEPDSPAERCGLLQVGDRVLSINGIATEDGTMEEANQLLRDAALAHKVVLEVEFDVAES
Chain of GRIP2_6, Q9C0E4 (Q9C0E4 648-740): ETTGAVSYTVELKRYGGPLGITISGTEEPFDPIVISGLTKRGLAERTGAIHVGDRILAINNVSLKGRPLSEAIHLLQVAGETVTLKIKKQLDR
Chain of FRMPD4, Q14CM0 (Q14CM0 67-160): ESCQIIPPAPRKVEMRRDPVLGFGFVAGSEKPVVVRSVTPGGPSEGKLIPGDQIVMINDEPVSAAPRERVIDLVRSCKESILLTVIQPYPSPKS
Chain of DLG5_1, Q8TDM6 (Q8TDM6 617-713): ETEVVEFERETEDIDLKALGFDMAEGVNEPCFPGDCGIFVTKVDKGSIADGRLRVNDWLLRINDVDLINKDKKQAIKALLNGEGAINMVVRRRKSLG
Chain of Inadl_2, Q8NI35 (Q8NI35 238-335): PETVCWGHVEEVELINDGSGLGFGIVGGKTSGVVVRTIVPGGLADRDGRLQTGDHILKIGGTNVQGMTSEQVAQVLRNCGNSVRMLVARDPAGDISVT
Chain of CASK, O14936 (O14936 487-570): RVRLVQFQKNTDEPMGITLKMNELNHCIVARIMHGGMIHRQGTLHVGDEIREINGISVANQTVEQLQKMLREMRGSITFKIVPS
Chain of PDZRN4_1, Q6ZMN7 (Q6ZMN7 213-318): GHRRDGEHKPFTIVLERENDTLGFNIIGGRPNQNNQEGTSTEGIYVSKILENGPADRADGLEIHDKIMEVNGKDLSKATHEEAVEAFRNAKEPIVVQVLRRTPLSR
Chain of MAGI2_2, Q86UL8 (Q86UL8 410-522): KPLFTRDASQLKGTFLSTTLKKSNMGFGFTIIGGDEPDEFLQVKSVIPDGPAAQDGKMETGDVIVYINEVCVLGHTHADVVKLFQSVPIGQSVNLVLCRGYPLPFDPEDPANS
Chain of LAP2, Q96RT1 (Q96RT1 other isoform, or with tags, fused parts or gaps): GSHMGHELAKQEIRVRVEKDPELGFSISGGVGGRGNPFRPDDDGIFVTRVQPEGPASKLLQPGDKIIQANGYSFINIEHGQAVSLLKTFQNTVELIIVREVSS
Chain of HTRA2, O43464 (O43464 355-458): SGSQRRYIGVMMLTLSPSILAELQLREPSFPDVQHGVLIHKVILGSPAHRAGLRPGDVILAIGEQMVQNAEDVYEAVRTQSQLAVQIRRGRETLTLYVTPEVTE
Chain of GRIP2_7, Q9C0E4 (Q9C0E4 934-1023): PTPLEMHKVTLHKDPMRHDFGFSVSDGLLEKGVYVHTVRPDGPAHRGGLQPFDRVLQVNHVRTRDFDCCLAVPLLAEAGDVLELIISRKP

Binder	pKd (GRIP1_2, Q9Y3R0)	pKd (GORASP2, Q9H8Y8)	pKd (FRMPD4, Q14CM0)	pKd (GRIP1_7, Q9Y3R0)	pKd (GRIP2_5, Q9C0E4)	pKd (GRIP1_5, Q9Y3R0)	pKd (GRIP2_7, Q9C0E4)	pKd (MPP7, Q5T2T1)	pKd (GRIP2_4, Q9C0E4)	pKd (PDZRN4_1, Q6ZMN7)	pKd (LAP2, Q96RT1)	pKd (DLG5_1, Q8TDM6)	pKd (GRIP1_3, Q9Y3R0)	pKd (APBA2_1, Q99767)	pKd (SYNJ2BP, P57105)	pKd (GRIP2_6, Q9C0E4)	pKd (SCRIB_2, Q14160)	pKd (HTRA2, O43464)	pKd (Inadl_2, Q8NI35)	pKd (SNX27, Q96L92)	other results
NKSEPFLTWL [WWTR1, Q9GZV5]	below the threshold	4.9	5.15	below the threshold	below the threshold	below the threshold	4.21	3.8	below the threshold	4.27	4.6	below the threshold	below the threshold	below the threshold	4.52	below the threshold	below the threshold	4.51	3.92	5.02	pKd (CASK, O14936): below the threshold; pKd (GRID2IP_1, A4D2P6): below the threshold; pKd (MAGI2_2, Q86UL8): 3.57; pKd (APBA1_1, Q02410): 4.11; pKd (MAGI2_4, Q86UL8): 3.85; pKd (TJP3_3, O95049): 4.15; pKd (TJP2_1, Q9UDY2): 5.59; pKd (SCRIB_1, Q14160): 4.63
PSVYSRSQYV [CLDN8, P56748]	below the threshold	4.88	below the threshold	below the threshold	below the threshold	below the threshold	3.51	below the threshold	below the threshold	below the threshold	below the threshold	below the threshold	below the threshold	below the threshold	below the threshold	3.48	below the threshold	4.46	below the threshold	3.75	pKd (CASK, O14936): below the threshold; pKd (GRID2IP_1, A4D2P6): below the threshold; pKd (MAGI2_2, Q86UL8): below the threshold; pKd (APBA1_1, Q02410): below the threshold; pKd (MAGI2_4, Q86UL8): 3.62; pKd (TJP3_3, O95049): 3.82; pKd (TJP2_1, Q9UDY2): 4.87; pKd (SCRIB_1, Q14160): below the threshold
GDSSRKEYFI [GYPC, P04921]	below the threshold	4.61	below the threshold	3.76	below the threshold	below the threshold	5.33	5.18	below the threshold	below the threshold	3.62	below the threshold	below the threshold	3.55	below the threshold	4.67	3.69	4.1	4.99	below the threshold	pKd (CASK, O14936): below the threshold; pKd (GRID2IP_1, A4D2P6): below the threshold; pKd (MAGI2_2, Q86UL8): 3.6; pKd (APBA1_1, Q02410): 3.65; pKd (MAGI2_4, Q86UL8): below the threshold; pKd (TJP3_3, O95049): 3.69; pKd (TJP2_1, Q9UDY2): below the threshold; pKd (SCRIB_1, Q14160): below the threshold
QLGSPTADLA [SIPA1, Q96FS4]	below the threshold	below the threshold	below the threshold	below the threshold	below the threshold	below the threshold	below the threshold	below the threshold	below the threshold	below the threshold	below the threshold	below the threshold	below the threshold	below the threshold	below the threshold	below the threshold	below the threshold	below the threshold	below the threshold	below the threshold	pKd (CASK, O14936): below the threshold; pKd (GRID2IP_1, A4D2P6): below the threshold; pKd (MAGI2_2, Q86UL8): below the threshold; pKd (APBA1_1, Q02410): below the threshold; pKd (MAGI2_4, Q86UL8): below the threshold; pKd (TJP3_3, O95049): below the threshold; pKd (TJP2_1, Q9UDY2): below the threshold; pKd (SCRIB_1, Q14160): below the threshold
